Reference: the supplement of paper PMC10126150
± gives the standard deviation of the averaged measurements.

System: ATP
Test: switch fluorescence ratio, 500 uM ATP over buffer (Cy3 cluster intensity, sum of 5 cycles each) (fold (ratio)); higher = stronger signal-on switching upon ATP binding; sequences stand for … in TCGTCGGCAGCGTCAGATGTGTATAAGAGACAGTTTTTTTTTTTTTTTTTTTTTTTTT…TC
Conditions: aptamer strand: ATP DNA aptamer (quencher-CACCTGGGGGAGTATTGCGGAGGAAGG + anchor), 100 nM annealed; ATP concentration: 500 uM
Method in brief: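 Switching-strand clusters labelled with Cy3 on a modified Illumina MiSeq flow-cell were annealed to 100 nM quencher-labelled ATP aptamer, imaged in selection buffer, and re-imaged after 15 min with 500 uM ATP at 22 °C. This was done over five cycles with NaOH stripping and re-annealing in between. The fluorescence ratio is summed target-cycle over summed buffer-cycle Cy3 intensity per cluster, averaged per switch-domain sequence, excluding clusters outside 100-1000 RFU.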
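Also: ATP exposure 15 min at 22 °C before imaging.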

Sequence	switch fluorescence ratio
TTAAATATGG	1.02 ± 0.033
CATTTCAGG	1.05 ± 0.033
CAGGGAAGG	0.995 ± 0.016
TTGTTATTCG	1.01 ± 0.087
GTTTGTTAAT	1.007 ± 0.0044
TGAATGAATA	1.027 ± 0.0085
GTTGTGGTTC	0.96755 ± 0.00092
TAGCGATGGG	1.01 ± 0.017
CGGTTTAGGG	0.986 ± 0.026
TACGTTGCTT	0.9959 ± 0.0022
GAGAAGATTT	1.036 ± 0.0016
TTATTGGTGT	1.01 ± 0.024
AAGGGGGACT	1.04 ± 0.039
GCGATTGGAT	1.03 ± 0.0022
CGTGAAAGCA	1.02 ± 0.067
GTGTTACTTT	0.99 ± 0.017
ATATGAAGGG	1 ± 0.032
AAGTCTATGG	1 ± 0.054
AGTAAAAAAT	0.9891 ± 0.0066
AAGCATCATT	1.0176 ± 0.00039
TCCTAGGTGT	4 ± 0.28
TAAAAAGGGA	1.02 ± 0.02
GTGTCATAGT	0.9923 ± 0.0016

Sequence	switch fluorescence ratio
TAAGAAAACT	1.36 ± 0.22
CCATTGTAAT	1.1 ± 0.024
TTAGCTTGG	0.999 ± 0.061
AGGGACTGTG	1.01 ± 0.073
TAAGATTTTT	1.01 ± 0.032
CCAAGTAGTA	1.03 ± 0.032
GTTGGTCTAC	1.04 ± 0.018
ATTGATGCTT	0.979 ± 0.018
TTGAAAATGG	0.992 ± 0.026
AGAGGAGTTA	0.985 ± 0.011
TTTGTTTGGT	0.985 ± 0.036
ACTTGATGGG	0.992 ± 0.045
AATGTCGACC	1.026 ± 0.0022
GGCCAACGTA	0.997 ± 0.021
TATATGGGAT	1.006 ± 0.0035
GTGAGTGCCT	1.006 ± 0.01
CGTTCGCCGG	0.99801 ± 8.6e-05
TGTGAGCAGG	1.15 ± 0.044
ATTTAGTACT	1.04 ± 0.021
TAGATAAGGC	0.981 ± 0.018
GGGAACTGGG	1.04 ± 0.049
TGCTACACGT	1.01 ± 0.027
TCACGGCTGG	0.971 ± 0.029

Sequence	switch fluorescence ratio
TGGCGGACAG	0.99 ± 0.026
GATTGGAGCG	1.008 ± 0.0031
GTGGATATGG	0.995 ± 0.043
TCATAAAAGC	0.99 ± 0.027
TATCGCGTTC	1.09 ± 0.078
ATTATCCCGG	0.99 ± 0.041
CCGGACACGA	1.39 ± 0.042
TAAGGGATGT	0.995 ± 0.049
AATTTAGAGT	1 ± 0.012
AGCTTCAAAT	1 ± 0.017
TTTTGGTCCT	1.07 ± 0.1
CAGGATGCGT	0.9611 ± 0.0076
TCGAAGGCAT	1.06 ± 0.03
AATTGGGCAG	0.9971 ± 0.0038
TTCGGGGAAT	0.982 ± 0.034
AGGAGGCGAG	0.9905 ± 0.0088
ATCTGAACGT	1.02 ± 0.074
ATGAAGGTCT	0.968 ± 0.02
GGCGAAAAGG	0.993 ± 0.047
CAGTCTGCAG	0.991 ± 0.031
GCGACGGGCG	0.972 ± 0.044
AGCGAGGGGA	1.04 ± 0.02
GATTTATGG	0.994 ± 0.058

Sequence	switch fluorescence ratio
GATCCGGGTG	1.38 ± 0.45
GGCGCGCGGT	0.98 ± 0.0095
TTTTGGGACT	1.03 ± 0.019
ATCAGGGACA	1.18 ± 0.017
CGGGCCACGC	1.04 ± 0.019
AAGTTATGAG	1.01 ± 0.046
TCCTTTTAGA	1.01 ± 0.011
GACTGGCATA	1.097 ± 0.0039
AAAGGAAGAT	0.993 ± 0.055
AGTAGCTTTT	0.997 ± 0.016
TTAAAGATTG	0.987 ± 0.014
ACAGGTTGGA	1.03 ± 0.023
CACCATCTTG	0.987 ± 0.019
CAGGTTGCCT	0.999 ± 0.046
CTCTCGGATG	1.01 ± 0.011
CGGGGGTGG	1.02 ± 0.062
AGTTGTTATT	1.027 ± 0.0088
AGAATAAAGG	0.993 ± 0.05
TCTGCCTTTT	1.05 ± 0.074
CAATGGGGGC	1.02 ± 0.045
AAGGGGTCGT	1 ± 0.025
TCCCTATCAC	1.1 ± 0.042
TATTTTAGAG	0.966 ± 0.018

Sequence	switch fluorescence ratio
TTCGTGGGGC	1.18 ± 0.21
ATCGGGGGTG	0.982 ± 0.036
CGAAGGGAAA	1.12 ± 0.19
TTTTTTAAAC	0.996 ± 0.013
GGGGGTATCA	0.98049 ± 0.00015
TGACTGGGGT	1.02 ± 0.068
AAGAGGCGCT	0.995 ± 0.05
GCTTTTGTAC	1.05 ± 0.05
GAGCGTCGGA	1.03 ± 0.12
CTGTATGGGT	0.9978 ± 0.0094
GTTAGTGCGA	1.01 ± 0.037
TTGGGGTGTC	1.01 ± 0.021
GTTTTGTTAT	1.01 ± 0.018
AGACGGTATT	1.056 ± 0.0039
TCATGGGCTT	1.01 ± 0.0059
AAAAAATTCG	1.03 ± 0.017
GAAAATAGTG	1.01 ± 0.029
AGGGTGGTAG	0.978 ± 0.035
AAACGGCGTT	0.9725 ± 0.0013
CTTTGAAGAG	1.017 ± 0.0058
TCATGGTTGG	0.997 ± 0.028
CCATTGGGGT	0.995 ± 0.017
AATACAGAGA	1.01 ± 0.055

Sequence	switch fluorescence ratio
AGAGATTGCC	1.0678 ± 0.0008
GGTCAATTAT	1.05 ± 0.068
CGCCGTCTGG	1.03 ± 0.0039
TAAGGTATGA	1.002 ± 0.0076
ATGGGCAACT	0.99 ± 0.024
GCAGAGGTGG	1.05 ± 0.037
TTATGCGTTT	1.2 ± 0.28
GGCCCTTTGG	0.984 ± 0.0082
TGCGCCTACC	1.28 ± 0.058
CGGTTGGTAT	0.969 ± 0.051
AAACAGCTTA	1.05 ± 0.056
AGAGAAGGGT	0.996 ± 0.017
CCCCAAGCAG	2.497 ± 0.0041
CTATGATTTG	0.9976 ± 0.0042
TTAGAGGGTG	1.12 ± 0.018
CTTAGGAGGG	0.997 ± 0.013
TTAAACTTAT	1.047 ± 0.0024
ATGGGTCTAT	1 ± 0.012
TTACATATGA	1.04 ± 0.016
ACCTGGAAAA	0.999 ± 0.048
ATTTTGGGGC	1.03 ± 0.018
GATTTCATGG	0.9784 ± 0.0044
TTAGAACATC	1.009 ± 0.0053

Sequence	switch fluorescence ratio
ATTTTAGGGG	0.983 ± 0.035
CAGGGCGTGG	0.948 ± 0.038
GTGCAGGGGC	1.04 ± 0.019
CGTATGGATA	0.998 ± 0.028
GGGAAATGGT	1.01 ± 0.027
TAGGTGGTCC	0.9892 ± 0.0014
TTCAGGATGT	1 ± 0.025
GGGCAGGTGG	1.08 ± 0.065
GTTTTGGAGT	1.05 ± 0.047
GGGTGTATCG	0.9943 ± 0.0036
ATTTGCGAGG	1.01 ± 0.017
TTGGATGAAG	0.982 ± 0.022
TTGTGGGGTG	1.01 ± 0.044
AGTTTTAACG	0.974 ± 0.073
TATAGGCGCT	0.994 ± 0.035
ATGGACATAC	1.22 ± 0.098
GGGTGGGGCT	1.01 ± 0.031
CCTCGGTAGG	1.02 ± 0.0051
ATGTTATTGT	0.98 ± 0.049
